Common to all, as to conditions: all L-DNA (mirror image); ITC: 20 mM HEPES-NaOH, 150 mM NaCl, 5 mM KCl, 2 mM MgCl2, 1 mM CaCl2, pH 7.4, 25 C; EMSA: same plus 0.05% Tween 20 and 10% glycerol, room temperature 30 min …
(In general: In EMSA bound probe runs differently from free probe, usually more slowly.)

The target in data set [1] is T1, native human alpha-thrombin (Homo sapiens) (UniProt P00734+P00734). Put plainly: EMSA.
The target of data set [2] is T1, native human alpha-thrombin (Homo sapiens). Put plainly: ITC.
In data set [3] the target is native bovine alpha-thrombin (Bos taurus (bovine)) (UniProt P00735+P00735). Put plainly: ITC. In general terms: In ITC the heat of successive injections is recorded.
Data set [4] concerns the target T1, native human alpha-thrombin (Homo sapiens). Put plainly: thrombin activity inhibition.

The Kd is the equilibrium constant for the complex coming apart. For “ACGGAACGCGTTTCAAGACTACCGTGTTTGTTCCGT [Cy5-L-9-1t aptamer]”, the dissociation constant Kd in data set [1] amounted to 0.021 µM.
Take “ACGGAACGCGTTTCAAGACTACCGTGTTTGTTCCGT [L-9-1t aptamer]”: the figures for the dissociation constant (Kd) in data set [2] and in data set [3] were 0.039 µM and 1.03 µM, respectively.
Consider “CGGATCCAGTTACGGAACGCGTTTCAAGACTACCGTGTTTGTTCCGTTCATTCAGTAAGCTTCGG [L-9-1 aptamer]”, for which the dissociation constant Kd in data set [2] was 0.029 µM.
One may read the IC50 as the concentration that gives 50% inhibition. Take “CGGATCCAGTTACGGATGAACTTGTTGAAACCCAACGGGAGAATCGTTCATTCAGTAAGCTTCGG [L-9-2 aptamer]”: the IC50 in data set [4] amounted to 0.317 µM. For the same sequence, in data set [2], the equilibrium dissociation constant (Kd) was 0.168 µM.
For “CGGATCCAGTTACGGATGAACTTGTTGAAACCCAACGGGAGCCTCGTTCATTCAGTAAGCTTCGGTGG [L-13 aptamer]” the same measures were 0.027 µM and 0.022 µM.
On to “GATGAACTTGTTGAAACCCAACGGGAGAATCGTTCATT [Cy5-L-9-2t aptamer]”, for which the Kd in data set [1] turned out to be 0.355 µM.
For the sequence “GATGAACTTGTTGAAACCCAACGGGAGAATCGTTCATT [L-9-2t aptamer]”, the IC50 in data set [4] stood at 0.479 µM. Also, the equilibrium dissociation constant (Kd) in data set [2] turned out to be 0.251 µM; in data set [3], 0.426 µM.
For “GATGAACTTGTTGAAACCCAACGGGAGCCTCGTTCATT [Cy5-L-13t aptamer]”, the dissociation constant Kd in data set [1] was found to be 0.028 µM.
As for “GATGAACTTGTTGAAACCCAACGGGAGCCTCGTTCATT [L-13t aptamer]”, in data set [4], the IC50 was 0.046 µM. Moreover, the figures for the equilibrium dissociation constant (Kd) in data set [2] and in data set [3] were 0.034 µM and 0.34 µM, respectively.
Turning to “GGAACGCGTTTCAAGACTACCGTGTTTGTTCC [L-9-1t' aptamer]”, the Kd in data set [2] is 0.111 µM.

Source of the values: paper PMC9646512.
